In the DeepSol protein solubility set:

Test: soluble on expression in E. coli; label from the status in PepcDB or PDB records

Sequence | soluble on expression in E. coli
SKMARASASASLIDGKIYVFGGCPEDADSSNWAEVFDPVYQTWGIFNTPKMAHSINQSVVIEEKKVYAVDEEDQSFSFLPSEGRIWKSGKKDSKVGSRHDWCVIGKLLYCRATRGRILWCQPDELDWKEVKGLEQLQLYLSGTRYIFRRTSDKRPSKTNVKYDIRKISSNSAGNIVIFGNAHIGDPECVELWSAEISMERREGGEIWGKIEWSNVVFKLDPLSNSYSVDVLFSASVHL | soluble
MSLKTQQSYQQRDDKGTLYLVATPIGNLEDVTFRAIRTLKEADQIAAEDTRQTKKLLNHFDIATKLVSYHEHNKETMGKRLIDDLIEGRTIALVSDAGMPAISDPGYELVVSAIKEGIAVIPIPGANAAVTALIASGLPTESFQFIGFLPRQKKQRRQALEETKPTKATLIFYESPHRLKDTLDDMLLILGNRHVSICRELTKTYEEFLRGTLEEAVHWAREATIKGEFCLIVEGNGEKVEPEEVWWESLSPVQHVEHYIALGFRSKEAIKQVATDRGVPKRDIYNIYHQEEGHHHHHH | soluble
SFWGWLNAVFNKVDHDRIRDVGPDRAASEWLLRCGAMVRYHGQQRWQKDYNHLPTGPLDKYKIQAIDATDSCIMSIGFDHMEGLQYVEKIRLCKCHYIEDGCLERLSQLENLQKSMLEMEIISCGNVTDKGIIALHHFRNLKYLFLSDLPGVKEKEKIVQAFKTSLPSLELKLDLK | soluble
MGLKVLLYDPDGEIAHFLEDIFEVTGHTLYPAGSEEEVFEYLKNEPEFFFLPFSLKEAWVNSLKERATIPIFFLFSEEEEERAKGLGIPEVNLVRVPFNPLELFERLGLLHKMKPKDFQEIGLFNTLVKSHLEEKGVKVKIKGSGGECLVNTYPVSLSCRLEELKELLKKRLRTGRR | not soluble
SNHFGNHCTNTSGVVCHNNYNCTIDNSIHYADTRGVVSHHRENITGHHGLVFPAATMNGYGPATSFPDMRENGHLMVNQNRPVTLRPSMSQQQPQPQPLSDEYNKVETGTAEQVYVPSRD | soluble
MADTFFFTPSRRLTVANVAELTGAKLLNPEFSNTVINTLSSLESAGKGSLVFVEHRKFSDALVGSSAVAVFCTNEIVFKVPESMAILVTSTPQRDFAQIGRILFPDSVKPMPWFGQREISPHAHIHPSAKLAGDVCIEAGAVIGRNVEIGSGSLIASTAVIGENCRIGCDCYIAPKVTVQYSLIGDKVHLYPGACIGQDGFGYIGGASGIEKVPQLGRVIIEDGVEIGANTTIDRGTFEDTIIGEGSKIDNLVQIAHNVKIGRYCLIAAQCGIAGSTSIGDMSQLGGSVGVADHIVIGKYVQIAAGSGVMNDIPDGEKWGGSPARPFKQWFREVAALRSIGKVKKEKR | not soluble
MPSLFKTMAFQLKTERLELSMWEESDSVWLSKLIGERGVDIPAVDSVRNRLIEMRKKADENGISLLTIRRRDEGDFIGYCGLIIGRSTLEEPEIAYELFRSAHGKGYATEAASVVLDAAIATGRQRLWSTVGAWNIASLRVLEKIGFKRHHSTWDDERGEIVWNVRDL | not soluble
MTEKTTVKTLKDVVVRFCGDSGDGMQLTGTIFSDLSAVFGNTISTFPDYPAEIRAPQGTLGGVSGFQVHIGTDLVRTPGDLADVLVAMNPAALKVNRTHVRRDSIIIIDSDSFMASDLEKAEIASEDFMTELGLTTQELFTVPISSMVKKSTAEFGLDVKAALRCKNMFALGLVCWLFDRPTQHAIDYLNRKFGKKEAILNANIKALADGFNYGHNTHATATTYRIEGRKQTPGVYMDISGNKATAYGLVAAAEHANLNL | soluble
GHVETIKNTFLNPKSNKVLVVAHRGNWRSAPENSTAAIDSAIAMKVDIVEIDIQKTKDGQLILMHDNTLDRTTTGKGEIKNWTLADIKKLKLKDKDGKVTNYVVPTLEEALLTAKGKIMVNLDKAYDIFDDVYAILEKTETQNQVIMKGGQPIETVKREFGSYLDKVLYMPVIDLGNKEAEKIITDYLKELRPAAFEIIYSDPKNPLPPKIKQLLFKKSLIWYNTLWGSLAGNHDDNLALTDPEKSYGYLIEQLGARILQTDQPAYLLDYLRKKGWHN | soluble
AMANIAQRPKRGPHDAAIQNILTELQNHAAAWPFLQPVNKEEVPDYYDFIKEPMDLSTMEIKLESNKYQKMEDFIYDARLVFNNCRMYNGENTSYYKYANRLEKFFNNKVKEIPEYSHLID | soluble
MASVHGTTYELLRRQGIDTVFGNPGSNELPFLKDFPEDFRYILALQEACVVGIADGYAQASRKPAFINLHSAAGTGNAMGALSNAWNSHSPLIVTAGQQTRAMIGVEALLTNVDAANLPRPLVKWSYEPASAAEVPHAMSRAIHMASMAPQGPVYLSVPYDDWDKDADPQSHHLFDRHVSSSVRLNDQDLDILVKALNSASNPAIVLGPDVDAANANADCVMLAERLKAPVWVAPSAPRCPFPTRHPCFRGLMPAGIAAISQLLEGHDVVLVIGAPVFRYHQYDPGQYLKPGTRLISVTCDPLEAARAPMGDAIVADIGAMASALANLVEESSRQLPTAAPEPAKVDQDAGRLHPETVFDTLNDMAPENAIYLNESTSTTAQMWQRLNMRNPGSYYFCAAGGLGFALPAAIGVQLAEPERQVIAVIGDGSANYSISALWTAAQYNIPTIFVIMNNGTYGALRWFAGVLEAENVPGLDVPGIDFRALAKGYGVQALKADNLEQLKGSLQEALSAKGPVLIEVSTVSPVKHHHHHH | soluble
MAHHHHHHMVCRSKRASSFRHRVVHACVTEQRVLPSCRIHVVLRNFSADFSSLSPRCHYTSAGLLLHPSPLPPPSSTSSRLSTSIPPFRFTRAESSAAVFSMSIGTDYLSAMLNYNGCLQERILRRLLIIENETDSLLALRCALVPLQTPTRKRKRHTEPVAAQGTSFNVDVDTTRHRWSTELCEALNDEAAKANCIASLCPPAKERWCAVAAALRRAGHPSFTPYELFTKYKEMHSDSRPFALSEARFVCQYVQEHGGDWQGLCQALRQRLGHVRSPFQVAQQYRQRLRCAFVENRLTSSQLLTLLADLPASPQDRDFAALSVEAQRFTSHKTLQVSPLYLKRELEPLDFAARVPTCHHLYWKLVNLLCNFTLSHPNRLHAFQHRMPFCYQQRSLADLARSLQCEAAELQERVVHALLRLSRPPEALNYEECSKKLFGTVCGAQLIYQISEKLHEKDI | soluble
MHFHVNNVVTSSQIDDVLVKICTGPLFDNGTPFITYGCVLHLSSERGIIRTFDEKLCLFELKDLNMDGVVDMTDVLPLGCTLKFFATRQNHHTFTASNVSPICEPAAQLIFLNSTEMNVITPDFTSTGSSNHYSVEKERFAYVRILELFQQQAVLSLPLSSMISELGKFGEDDVSQYIGISDEERGMFIKRRTHLFTVGWNDLVTLQSPDFYQAIVLILSYILCNGGVTSTENVFEFYQTDNVPLSVRQRTGSDMNSFREIIDFHSWAFTLSSHGTYVSAKRNLPHFDYMSFFEGIVCTATPQRHQKSKLLKHPPGLQIPLLNTRAQALGQASMHQQQQEHISNPYQGYQPYLHREDMTNGMKKPTGTLIDGANQKHCFGMQVSSPDRNAFEKPSVFGHTWGDVIAFNKNSANFSRGMQSKRRYNLSSMFRNLKYSGFRSSIDSTSSSDDSQSLDNCSTSGVNNMLIGCGPQMY | not soluble
MTKKKLLKALAVAAIATSLVACSDSSSNDKTLTTAVSSGSSVATTTVAAPADNTNVTANASYIIGYGMGSSIATDKNIKTFNLNNDKVMAGFEDAINAKKPAIPLEDIANNMNTLRDKMQQQMNQKAVTSFLSVQDGIYNSDLTPKSDIKNPDVVVYEFFDYQCMYCSKLAPEIEKIMKDNSDVQVVFAEFPIFGQKLPASEYAAEVSTAIYKLYGADAYVKYHNGIFATGEDEGSLKNATVDNVAKQAGADMTKVNKAIQDDKIADHLKDMLKMGFGQLGIQGTPFLVIAPAKNATVANTTIIGGYTTADGIQAAINKAKSTATTTSTSNNGQTDTKQAQNDIATVTAEAQATSGSTEQLAQPR | not soluble
SRVSVTDYKRLLDSGAFHLLLDVRPQVEVDICRLPHALHIPLKHLERRDAESLKLLKEAIWEEKQGTQEGAAVPIYVICKLGNDSQKAVKILQSLSAAQELDPLTVRDVVGGLMAWAAKIDGTFPQY | soluble
MLRSKKMVLVGRKAPDFTAAAVLGNGEIVDNFNFAEFTKGKKAVVFFYPLDFTFVCPSELIAFDNRYEDFLAKGVEVIGVSIDSQFSHNAWRNTAVENGGIGQVKYPLVADVKHEICKAYDVEHPEAGVAFRGSFLIDEEGMVRHQVVNDLPLGRNIDEMLRMVDALNFHQTHGEVCPAQWEAGKAGMEASPKGVAAFLSQYSADLK | not soluble
MNEDMEFFNRFSHMYLHGFKNLSDMFAEPATEHGITLDEFYILYDIAEAKGKIRLMDIAESHGVTRSAISRLIGRLLRKDYLYQEAEDHDRRNKVLKLTPEGARIEHEVFTELIQRNREWRQSFSLAKQYQTLNLVEEFMDKFVNEDASKQTKKATYADTDLKRAEA | not soluble
MSLTTETRSLYSQLPAIDRLLRDSSFLSLRDTYGHTRVVELLRQMLDEAREVIRGSQTLPAWCENWAQEVDARLTKEAQSALRPVINLTGTVLHTNLGRALQAEAAVEAVAQAMRSPVTLEYDLDDAGRGHRDRALAQLLCRITGAEDACIVNNNAAAVLLMLAATASGKEVVVSRGELVEIGGAFRIPDVMRQAGCTLHEVGTTNRTHANDYRQAVNENTALLMKVHTSNYSIQGFTKAIDEAELVALGKELDVPVVTDLGSGSLVDLSQYGLPKEPMPQELIAAGVSLVSFSGDKLLGGPQAGIIVGKKEMIARLQSHPLKRALRADKMTLAALEATLRLYLHPEALSEKLPTLRLLTRSAEVIQIQAQRLQAPLAAHYGAEFAVQVMPCLSQIGSGSLPVDRLPSAALTFTPHDGRGSHLESLAARWRELPVPVIGRIYDGRLWLDLRCLEDEQRFLEMLLKEGGSHHHHHH | soluble
MAHHHHHHMYAGFPRLNVTEAQETVDLDFELTNEKGCVKVTEFPVPKVVNLSFPAVCALLYNARTATSSRNIFGSVIGLQLQDTVEVTDVKTNPSIDIEEDDRMTEEERMERVRKERKLLDADKAIFENMYNQENLDTNVIGQFVVSSARFNPFSTRTMRKLQELHRESLPAILLTYDPFRTGLLGRPHIRAYTPTAAYYKYDSLVSTERGYQRRRSLAQYAKESGITKEGVLHEIPVKLEVDAFHKLNLMNVPPTAVGDSFKAIQSMAVSNYIEALLSSIRNNTDQLKQKLDYEGNVKDNGNVPVGQDAETMLLMKHVRDQTDHLDALCDSALLYSSLLRDL | soluble
MSLKILITGSNGLLGQKLVSLLYLKPEITLIATARGANRDEIYEDYIYESMDITSEENVLKVFRKHKPDAVIHTAAMTHVDQCELNKEACVDQNITSVKHIVKACKEVGAFLLHVSTDFIFDGTRGPLTEEEIPNPVNYYGWTKWEAEKAVENSGLKWAIARTVLVFGVVQDMSRSNIVLWVKNNLEQKKEINVVNDQWRTPTLAEDLAMGCWLIVKNQAEGIFNISGEEMLSPYELAHKVADVWKLDKGLIKQADSSTFTQPALRPPKTGFIIDKAKKQLGYKPHTLEEGLDLLKEQLTEGHHHHHH | soluble
EAQTRVKLNFLDQIAKYWELQGSTLKIPHVERKILDLFQLNKLVAEEGGFAVVCKDRKWTKIATKMGFAPGKAVGSHIRGHYERILNPYNLFLSGDSLRCLQKPNLTSDTKDKEY | soluble
MAHHHHHHMKGSNTVHTREANANEVHASRQDMRAALLPSDTRILVSRIPASAVSVVSDETRAKGRRRCLVTRTLRRCPEMMSHRRGGHAALVSLLLPLTSHRFCVSPSHVLSIASCAFPCTHSCCVQQGVHPSHLPACLPACRRPRACFVSALCRAHEHAVMFSYNNIIEKGEPLNKEIIDHVLDHVTEFPTPTMVSVGDGKADCIVLENFLTHEECDQLVAACEKVGYTFWLQKNHHDADGEATCDSGSKAVRVVDTIEANFPHLSAKLYERIARVVSLKPKCFSEDMPNAEELFERELAGTWVPHALSENLLFGRYHPGGHFMPHVDGATILDLNTRSFYTLLIYLNDCLHGGETFIFAGEQCNVMYLDEKENQYRGNATQRVGAVYPKKGSAAFFYYNLLHEGAPVLEGHKYICRADLLYHRTPTIFTSEADEKAFKAYQEARLAESHGDAERACQLFQRVRKLSKGVASIFQIE | not soluble
